Publication PMC6506263 (The Biochemical journal, 2019)

Columns and labels:
[1] = molecular target: TorS sensor domain (Escherichia coli) (UniProt P39453); settings: cited from earlier work
[2] = molecular target: the molecule itself; test: cross-linking
[3] = molecular target: the molecule itself; test: native gel or EMSA

Sequence of TorS sensor domain (P39453 whole entry, the tested form may be a part): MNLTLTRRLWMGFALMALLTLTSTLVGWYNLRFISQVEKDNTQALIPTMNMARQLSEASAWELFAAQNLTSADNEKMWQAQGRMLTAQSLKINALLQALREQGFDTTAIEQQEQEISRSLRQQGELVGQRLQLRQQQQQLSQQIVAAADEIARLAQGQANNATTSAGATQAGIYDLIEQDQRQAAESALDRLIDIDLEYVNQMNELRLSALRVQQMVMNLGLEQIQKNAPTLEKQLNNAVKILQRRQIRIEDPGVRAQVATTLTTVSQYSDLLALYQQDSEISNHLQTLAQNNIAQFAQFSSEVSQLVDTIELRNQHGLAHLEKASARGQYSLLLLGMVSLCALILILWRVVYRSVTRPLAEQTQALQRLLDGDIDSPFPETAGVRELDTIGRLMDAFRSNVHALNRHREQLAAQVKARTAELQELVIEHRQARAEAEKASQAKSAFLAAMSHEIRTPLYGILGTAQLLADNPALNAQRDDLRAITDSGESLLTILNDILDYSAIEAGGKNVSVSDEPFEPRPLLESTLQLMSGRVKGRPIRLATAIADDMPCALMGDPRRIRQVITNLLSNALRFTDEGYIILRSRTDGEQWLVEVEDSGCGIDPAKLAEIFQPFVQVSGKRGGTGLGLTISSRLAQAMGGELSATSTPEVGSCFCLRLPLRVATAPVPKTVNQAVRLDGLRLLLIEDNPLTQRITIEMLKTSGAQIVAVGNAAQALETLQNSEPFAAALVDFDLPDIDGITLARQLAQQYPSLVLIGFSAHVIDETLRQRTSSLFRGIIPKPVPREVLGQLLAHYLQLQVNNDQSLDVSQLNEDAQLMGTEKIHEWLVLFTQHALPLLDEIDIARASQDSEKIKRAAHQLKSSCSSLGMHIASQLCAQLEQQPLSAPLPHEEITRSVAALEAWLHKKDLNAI

| Molecule | binding result [2] | binding result [3] | also measured |
| --- | --- | --- | --- |
| TorS sensor domain (from UniProt P39453) | – | – | Kd [1]: 49.6 µM |
| N-terminal Strep-tagged CusS(39–187) wild-type, periplasmic sensor domain of the histidine kinase CusS (domain or fragment, E. coli) VKVHFAEQDINDLKEISATLERVLNHPDETQARRLMTLEDIVSGYSNVLISLADSQGKTVYHSPGAPDIREFTRDAIPDKDAQGGEVYLLSGPTMMMPGHGHGHMEHSNWRMINLPVGPLVDGKPIYTLYIALSIDFHLHYINDLMNKLEGSA | binds | – | – |
| N-terminal Strep-tagged CusS(39–187)-IIA (M133I/M135I/H145A), internal metal binding site eliminated (domain or fragment, E. coli) VKVHFAEQDINDLKEISATLERVLNHPDETQARRLMTLEDIVSGYSNVLISLADSQGKTVYHSPGAPDIREFTRDAIPDKDAQGGEVYLLSGPTIMIPGHGHGHMEASNWRMINLPVGPLVDGKPIYTLYIALSIDFHLHYINDLMNKLEGSA | binds | – | – |
| CusScp-short, cytoplasmic domain of CusS (amino acids 208–480) with C-terminal 6xHis tag, wild-type (domain or fragment, E. coli) MASKGHAPIRSVSRQIQNITSKDLDVRLDPQTVPIELEQLVLSFNHMIERIEDVFTRQSNFSADIAHEIRTPITNLITQTEIALSQSRSQKELEDVLYSNLEELTRMAKMVSDMLFLAQADNNQLIPEKKMLNLADEVGKVFDFFEALAEDRGVELRFVGDKCQVAGDPLMLRRALSNLLSNALRYTPTGETIVVRCQTVDHLVQVIVENPGTPIAPEHLPRLFDRFYRVDPSRQRKGEGSGIGLAIVKSIVVAHKGTVAVTSDARGTRFVITLPALE | – | binds | – |
| CusScp-long, cytoplasmic domain of CusS with C-terminal Strep-Myc-Strep-FLAG-HA-Strep tags, wild-type (domain or fragment, E. coli, UniProt P77485 208-480, looked up) KGHAPIRSVSRQIQNITSKDLDVRLDPQTVPIELEQLVLSFNHMIERIEDVFTRQSNFSADIAHEIRTPITNLITQTEIALSQSRSQKELEDVLYSNLEELTRMAKMVSDMLFLAQADNNQLIPEKKMLNLADEVGKVFDFFEALAEDRGVELRFVGDKCQVAGDPLMLRRALSNLLSNALRYTPTGETIVVRCQTVDHLVQVIVENPGTPIAPEHLPRLFDRFYRVDPSRQRKGEGSGIGLAIVKSIVVAHKGTVAVTSDARGTRFVITLPA | – | binds | – |
